# Values of other authors, collected in PMC5053023.
# Target: SRSF1 RS domain (Homo sapiens) (UniProt Q07955)
# Sequence of UniProt Q07955 (Q07955 198-248): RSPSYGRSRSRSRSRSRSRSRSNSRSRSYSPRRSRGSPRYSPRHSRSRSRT
substance,measurement,value
SRPK1 (from UniProt Q96SB4),Kd,100 nM
